We go through 1 substance from patent publication US20160311921A1.

The target of the experiment is farletuzumab. As to the kind of experiment: cell-based or functional assay.
Sequence of farletuzumab (heavy, as listed by the source, chain 1 of 2): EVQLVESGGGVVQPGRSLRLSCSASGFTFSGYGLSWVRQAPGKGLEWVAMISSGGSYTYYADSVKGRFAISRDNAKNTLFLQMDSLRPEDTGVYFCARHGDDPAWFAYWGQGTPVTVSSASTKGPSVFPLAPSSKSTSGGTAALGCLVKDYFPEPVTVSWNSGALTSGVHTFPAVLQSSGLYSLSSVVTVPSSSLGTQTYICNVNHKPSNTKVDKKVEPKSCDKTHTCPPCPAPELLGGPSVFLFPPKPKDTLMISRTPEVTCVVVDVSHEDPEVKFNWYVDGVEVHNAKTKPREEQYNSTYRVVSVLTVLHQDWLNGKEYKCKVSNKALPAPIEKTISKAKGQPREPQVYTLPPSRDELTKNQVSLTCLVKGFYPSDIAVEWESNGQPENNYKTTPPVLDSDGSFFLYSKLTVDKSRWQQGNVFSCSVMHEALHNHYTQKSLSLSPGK
Sequence of farletuzumab (light, as listed by the source, chain 2 of 2): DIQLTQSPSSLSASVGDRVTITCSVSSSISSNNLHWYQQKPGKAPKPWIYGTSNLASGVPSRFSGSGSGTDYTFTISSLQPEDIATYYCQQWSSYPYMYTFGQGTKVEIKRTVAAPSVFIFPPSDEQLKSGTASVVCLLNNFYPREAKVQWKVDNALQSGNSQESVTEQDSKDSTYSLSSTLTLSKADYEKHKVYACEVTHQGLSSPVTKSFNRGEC

As for “cancer antigen 125 (CA125) (from UniProt Q8WXI7 1-14451)”, the inhibition of Farletuzumab ADCC activity (luminescence, Promega ADCC Reporter Bioassay Core Kit, CHO-hFR-α target cells) amounted to 50%.
